The target of series [1] is T1, N15 Cro-His6 (bacteriophage N15, UniProt Q37964 1-71).
T1 sequence: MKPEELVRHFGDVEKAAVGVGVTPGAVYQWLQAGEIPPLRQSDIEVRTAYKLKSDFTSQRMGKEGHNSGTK
The series is described as follows: EMSA. A general note: A gel shift assay detects complexes by their altered migration in electrophoresis.

In series [2] the target is T2, N15 Cro (bacteriophage N15, UniProt Q37964 1-71).
T2 sequence: T1 sequence
As to the kind of experiment: EMSA.

In series [3] the target is T2, N15 Cro. The series is described as follows: X-ray crystallography.

By Kd is commonly meant a measure of binding affinity in units of concentration. The low end stands for a tighter complex, the high end for a looser complex.

B1: N15 OR3 28 bp (dsDNA)
DNA 1: GCAAAATTATAGCCAGCTATAAAGAGCG
DNA 2: CGCTCTTTATAGCTGGCTATAATTTTGC
As to B1, the Kd in series [1] was 91 ± 11 nM; in series [2], 90 ± 7 nM.

B2: N15 symmetric consensus OR 16 bp (dsDNA)
DNA 1: TTTATAGCTAGCTATAA
DNA 2: TTTATAGCTAGCTATAA
For the molecule B2, the binding result in series [3] is listed as “binds”.

(Values after paper PMC6649833.)
